Results from patent EP4721767A1 (priority 2023, dated 2024).

Tests used:
[1] = Phase I, advanced solid tumors, reported 2021; cited from earlier work
[2] = target: T1, human B7-H3 naturally expressed on the surface of SKOV3 cells (human) (UniProt Q5ZPR3); assay: flow cytometry (MFI) on SKOV3 cells naturally expressing human B7-H3
T1 sequence (looked up): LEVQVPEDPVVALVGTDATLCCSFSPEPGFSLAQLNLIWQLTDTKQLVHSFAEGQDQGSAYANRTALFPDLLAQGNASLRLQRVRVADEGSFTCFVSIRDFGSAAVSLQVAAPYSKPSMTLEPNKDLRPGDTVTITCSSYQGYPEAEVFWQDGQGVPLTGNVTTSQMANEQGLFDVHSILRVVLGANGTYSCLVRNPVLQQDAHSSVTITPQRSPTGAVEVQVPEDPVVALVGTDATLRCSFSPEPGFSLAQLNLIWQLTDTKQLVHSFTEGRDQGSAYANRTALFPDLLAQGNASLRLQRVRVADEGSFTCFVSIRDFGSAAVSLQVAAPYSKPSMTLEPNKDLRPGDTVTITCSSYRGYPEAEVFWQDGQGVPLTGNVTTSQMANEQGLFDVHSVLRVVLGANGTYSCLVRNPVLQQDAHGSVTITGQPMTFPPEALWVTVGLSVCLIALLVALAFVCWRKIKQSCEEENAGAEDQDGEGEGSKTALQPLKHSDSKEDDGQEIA

[3] = target: T2, Recombinant human B7-H3 extracellular domain protein (UniProtKB-Q5ZPR3, amino acids 1-461, C-His tag) (human) (UniProt Q5ZPR3); assay: BLI (ForteBio Octet QKe), antibody on AHC probes, 60 nM antigen, 1:1 Langmuir fit
T2 sequence (looked up): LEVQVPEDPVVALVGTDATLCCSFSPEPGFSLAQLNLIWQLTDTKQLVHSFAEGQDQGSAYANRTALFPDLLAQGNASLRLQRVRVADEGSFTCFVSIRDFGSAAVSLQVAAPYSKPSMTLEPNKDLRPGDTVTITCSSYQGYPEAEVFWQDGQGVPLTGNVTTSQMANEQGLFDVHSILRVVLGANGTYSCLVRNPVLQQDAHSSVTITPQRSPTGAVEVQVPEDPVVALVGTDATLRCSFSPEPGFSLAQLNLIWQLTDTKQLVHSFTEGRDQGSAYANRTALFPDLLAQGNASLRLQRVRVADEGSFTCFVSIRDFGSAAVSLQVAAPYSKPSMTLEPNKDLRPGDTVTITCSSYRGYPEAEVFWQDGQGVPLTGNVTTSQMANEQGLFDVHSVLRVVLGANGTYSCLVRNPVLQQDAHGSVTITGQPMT

B1: MGC018: MacroGenics ADC: anti-B7-H3 humanized IgG1 monoclonal antibody conjugated to Duocarmycin (DUBA) via a cleavable linker, average DAR 2.7 (conjugate, chains of the INN, looked up)
VH: EVQLVESGGGLVKPGGSLRLSCAASGFTFSSYGMSWVRQAPGKGLEWVATINSGGSNTYYPDSLKGRFTISRDNAKNSLYLQMNSLRAEDTAVYYCARHDGGAMDYWGQGTTVTVSS
VL: DIQMTQSPSSLSASVGDRVTITCRASESIYSYLAWYQQKPGKAPKLLVYNTKTLPEGVPSRFSGSGSGTDFTLTISSLQPEDFATYYCQHHYGTPPWTFGQGTRLEIK
modifications: duocarmycin (DUBA) payload, cleavable linker, DAR 2.7
Grade 3 and higher treatment-related adverse events (TRAEs) [1]: 50%
patients with Grade 3 and higher treatment-related adverse events (TRAEs) [1]: 43 patients
severe TRAE neutropenia [1]: 22.1%
severe TRAE thrombocytopenia [1]: 7%

B2: Control antibody hum30 (antibody, from another filing, V domains shown)
VH: QVQLVQSGAEVKKPGSSVKVSCKASGYTFTNYVMHWVRQAPGQGLEWMGYINPYNDDVKYNEKFKGRVTITADESTSTAYMELSSLRSEDTAVYYCARWGYYGSPLYYFDYWGQGTLVTVSS
VL: EIVLTQSPATLSLSPGERATLSCRASSRLIYMHWYQQKPGQAPRPLIYATSNLASGIPARFSGSGSGTDFTLTISSLEPEDFAVYYCQQWNSNPPTFGQGTKVEIK
EC50 [2]: 1.22 nM
Kd [3]: 0.344 nM
koff [3]: 0.000324 s⁻¹
kon [3]: 941000 M⁻¹ s⁻¹
